{
  "source": "patent US20150299255A1",
  "biological_target": "lectin SNA1 from Sambucus nigra (Sambucus nigra) (UniProt Q41358)",
  "sequence (Q41358 29-289 limits assumed, chain 1 of 2)": "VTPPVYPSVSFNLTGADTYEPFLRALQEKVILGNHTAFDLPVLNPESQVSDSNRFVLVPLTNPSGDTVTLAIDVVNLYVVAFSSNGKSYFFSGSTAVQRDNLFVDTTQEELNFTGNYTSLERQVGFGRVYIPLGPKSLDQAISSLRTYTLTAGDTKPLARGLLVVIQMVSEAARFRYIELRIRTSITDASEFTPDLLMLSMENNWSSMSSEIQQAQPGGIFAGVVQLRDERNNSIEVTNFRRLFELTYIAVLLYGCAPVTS",
  "sequence (Q41358 309-570 limits assumed, chain 2 of 2)": "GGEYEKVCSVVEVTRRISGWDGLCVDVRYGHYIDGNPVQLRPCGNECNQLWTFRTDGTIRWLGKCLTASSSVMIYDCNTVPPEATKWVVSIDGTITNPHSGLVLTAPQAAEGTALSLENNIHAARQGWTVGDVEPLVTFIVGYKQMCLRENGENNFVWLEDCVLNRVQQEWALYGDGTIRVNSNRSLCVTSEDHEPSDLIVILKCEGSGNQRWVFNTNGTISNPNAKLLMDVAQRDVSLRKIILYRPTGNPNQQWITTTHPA",
  "data": [
    {"substance": "fetuin (from UniProt P12763 19-359)", "values": [
      {"measurement": "amount of fetuin giving essentially complete inhibition of SVH1C binding (pmoles per well)", "value": 500},
      {"measurement": "percent inhibition of SVH1C binding at 100 pmoles fetuin per well", "value": 50, "unit": "%"}
    ]}
  ]
}
